# Measurements: US20210403579A1 (DELINIA, published 2021)
# Positions count from the first letter of the chain named.
# B1: Human ST2 IgG1 Antibody 101 (antibody, V domains shown)
# VH: QVQLVQSGAEVKKPGASVKVSCKASGYTFSTYDINWVRQAPGQGLEWVGIISPSGGWTTYAQKFQGRVTMTRDTSTSTVYMELSSLRSEDTAVYYCARVNYDILTGQGRGYYFDYWGQGTLVTVSS
# VL: DIQMTQSPSSLSASVGDRVTITCQATQDIADYLNWYQQKPGKAPKLLIYKASSLESGVPSRFSGSGSGTDFTLTISSLQPEDFATYYCQQSYSTPTFGPGTKVDIKR
# notes: IgG1, kappa; also called ST2 Antibody 101
# B2: Human ST2 IgG1 Antibody 41 (antibody, V domains shown)
# VH: QVQLVQSGAEVKKPGSSVKVSCKASGYTFTDYQMHWVRQAPGQGLEWVGVINPGGGSTTYAQTFQGRVTITADESTSTAYMELSSLRSEDTAVYYCARGGVEYSSSWDYYYYYGMDVWGQGTTVTVSS
# VL: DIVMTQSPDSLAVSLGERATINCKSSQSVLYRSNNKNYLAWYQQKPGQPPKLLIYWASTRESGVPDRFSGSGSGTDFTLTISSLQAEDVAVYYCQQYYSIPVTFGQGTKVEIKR
# notes: IgG1, kappa; also called ST2 Antibody 41
# B3: Human ST2 IgG1 Antibody 57 (antibody, V domains shown)
# VH: QVQLVQSGAEVKKPGASVKVSCKASGYTFTGYYMHWVRQAPGQGLEWMGVINPSGGSTSYAQKFQGRVTMTRDTSTSTVYMELSSLRSEDTAVYYCARGDYYYGSGSDYYYYYGMDVWGQGTLVTVSS
# VL: DIQMTQSPSSLSASVGDRVTITCRASQGVTSWLAWYQQKPGKAPKLLIYAASTLQSGVPSRFSGSGSGTDFTLTISSLQPEDFATYYCQQANSFPLTFGGGTKVEIKR
# notes: IgG1, kappa; also called ST2 Antibody 57
# B4: Human ST2 IgG1 Antibody 99 (antibody, V domains shown)
# VH: EVQLLESGGGLVQPGGSLRLSCAASGFTFSDYYMNWVRQAPGKGLEWVSTISGFGESTFYADSVKGRFTISRDNSKNTLYLQMNSLRAEDTAVYYCARLGAARAFDIWGQGTTVTVSS
# VL: DIQMTQSPSSLSASVGDRVTITCRASQSIGSWMAWYQQKPGKAPKLLIYAASTLQSGVPSRFSGSGSGTDFTLTISSLQPEDFATYYCQQSYTTPITFGPGTKVDIKR
# notes: IgG1, kappa; also called ST2 Antibody 99
# B5: Human ST2 IgG1 Antibody 63 (antibody, V domains shown)
# VH: QVQLVQSGAEVKKPGSSVKVSCKASGGTFSSDAINWVRQAPGQGLEWMGGIVPAFGTANYAQKFQGRVTITADESTSTAYMELSSLRSEDTAVYYCARSSSSWPYYYYYMDVWGKGTTVTVSS
# VL: DIVMTQSPLSLPVTPGEPASISCRSSQSLLLNNGNNFIDWYLQKPGQSPQLLIYAASILQGGVPDRFSGSGSGTDFTLKISRVEAEDVGVYYCMQALQTPPTFGQGTKVEIKR
# notes: IgG1, kappa; also called ST2 Antibody 63
# B6: Human ST2 IgG1 Antibody 38 (antibody, V domains shown)
# VH: QVQLVQSGAEVKKPGSSVKVSCKASGGTFSSYAISWVRQAPGQGLEWMGTIIPMFGIADYAQKFQGRVTITADESTSTAYMELSSLRSEDTAVYYCARSSRSSSWYNWYFDLWGRGTLVTVSS
# VL: EIVMTQSPATLSVSPGERATLSCRASQSISSSYLAWYQQKPGQAPRLLIYGASTRATGIPARFSGSGSGTEFTLTISSLQSEDFAVYYCQQYYTTPWTFGQGTKVEIKR
# notes: IgG1, kappa; also called ST2 Antibody 38
# B7: Human ST2 IgG1 Antibody 70 (antibody, V domains shown)
# VH: QVQLVQSGAEVKKPGSSVKVSCKASGYAFTDYFIHWVRQAPGQGLEWMGGIIPIFGTANYAQKFQGRVTITADKSTSTAYMELSSLRSEDTAVYYCARVAYGAFDIWGQGTMVTVSS
# VL: B6 VL with I29V, Y93N, T94N, T95W, W97L, Q101G
# notes: IgG1, kappa; also called ST2 Antibody 70
# B8: Human ST2 IgG1 Antibody 45 (antibody, V domains shown)
# VH: QVQLVQSGAEVKKPGSSVKVSCKASGGTFSSYAISWVRQAPGQGLEWMGGIVPIFETANYAQKFQGRVTITADESTSTAYMELSSLRSEDTAVYYCARDTPNFDYWGQGTLVTVSS
# VL: not shown
# notes: IgG1, kappa; also called ST2 Antibody 45
# B9: Human ST2 IgG1 Antibody 39 (antibody, V domains shown)
# VH: QVQLVQSGAEVKKPGSSVKVSCKASGYTFTSYYMQWVRQAPGQGLEWMGGIIPIFGTANYAQKFQGRVTITADESTSTAYMELSSLRSEDTAVYYCARARFGAVDYWGQGTLVTVSS
# VL: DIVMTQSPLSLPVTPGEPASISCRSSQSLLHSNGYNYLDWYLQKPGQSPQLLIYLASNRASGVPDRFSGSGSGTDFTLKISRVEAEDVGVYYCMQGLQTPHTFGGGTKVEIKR
# notes: IgG1, kappa; also called ST2 Antibody 39
# B10: Human ST2 IgG1 Antibody 52 (antibody, V domains shown)
# VH: QVQLVQSGAEVKKPGSSVKVSCKASGGTFSNYAISWVRQAPGQGLEWMGWISAYNGNTNYAQKFQGRVTITADESTSTAYMELSSLRSEDTAVYYCARLSTVTTRPYYYYGMDVWGQGTTVTVSS
# VL: DIVMTQSPLSLPVTPGEPASISCRSSQSLLHSNGYNYLDWYLQKPGQSPQLLIYAASSLQGGVPDRFSGSGSGTDFTLKISRVEAEDVGVYYCMQGTHWPTFGQGTKVEIKR
# notes: IgG1, kappa; also called ST2 Antibody 52
# B11: Human ST2 IgG1 Antibody 35 (antibody, V domains shown)
# VH: QVQLVQSGAEVKKPGASVKVSCKASAYTFTSYGISWLRQAPGQGLEWMGWINPNSGNTGYAHKFQGRVTMTRDTSTSTVYMELSSLRSEDTAVYYCARGGSGWPTWGQGTLVTVSS
# VL: DIQMTQSPSSLSASVGDRVTITCQASQDISNYLNWYQQKPGKAPKLLIYGASSLQSGVPSRFSGSGSGTDFTLTISSLQPEDFATYYCQQANTFPFTFGPGTKVDIKR
# notes: IgG1, kappa; also called ST2 Antibody 35
# B12: Human ST2 IgG1 Antibody 44 (antibody, V domains shown)
# VH: EVQLLESGGGLVKPGGSLRLSCAASGFTFSSYWMSWVRQAPGKGLEWVSAISGTAINTYYADSVKGRFTISRDDSKNTLYLQMNSLKTEDTAVYYCARVRRDSSGGGAFDIWGQGTMVTVSS
# VL: DIQMTQSPSSLSASVGDRVTITCRASQGISNNLNWYQQKPGKAPKLLIYAASSLQTGVPSRFSGSGSGTDFTLTISSLQPEDFATYYCQQSYSTPPTFGQGTKVEIKR
# notes: IgG1, kappa; also called ST2 Antibody 44
# B13: Human ST2 IgG1 Antibody 89 (antibody, V domains shown)
# VH: B12 VH
# VL: B12 VL
# notes: IgG1, kappa; also called ST2 Antibody 89
# B14: Human ST2 IgG1 Antibody 83 (antibody, V domains shown)
# VH: EVQLLESGGGLVKPGGSLRLSCAASGFTFSSYWMSWVRQAPGKGLEWVSAIGTAGDTYYPGSVKGRFTISRDDSKNTLYLQMNSLKTEDTAVYYCAILRRDKVWPFDYWGQGTLVTVSS
# VL: B12 VL with G28S, N31S, N32H, N34H, T56S, T94S, P96V, Q100G
# notes: IgG1, kappa; also called ST2 Antibody 83
# B15: Human ST2 IgG1 Antibody 98 (antibody, V domains shown)
# VH: B12 VH
# VL: B12 VL
# notes: IgG1, kappa; also called ST2 Antibody 98
# B16: Human ST2 IgG1 Antibody 78 (antibody, V domains shown)
# VH: EVQLLESGGGLVQPGGSLRLSCAASDFNFKNAWMSWVRQAPGKGLEWVSAISGNGAGTYYADSVKGRFTISRDNSKNTLYLQMNSLRAEDTAVYYCARVGETGAFDIWGQGTTVTVSS
# VL: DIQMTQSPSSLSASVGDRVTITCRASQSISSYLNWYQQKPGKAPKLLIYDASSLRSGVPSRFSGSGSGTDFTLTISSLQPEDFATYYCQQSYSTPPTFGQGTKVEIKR
# notes: IgG1, kappa; also called ST2 Antibody 78
# B17: Human ST2 IgG1 Antibody 54 (antibody, V domains shown)
# VH: EVQLLESGGGLVQPGGSLRLSCAASGFTVSSNYMSWVRQAPGKGLEWVSAISGSGGSTYYADSVKGRFTISRDNSKNTLYLQMNSLRAEDTAVYYCARGRFGSRDVWGKGTTVTVSS
# VL: not shown
# notes: IgG1, kappa; also called ST2 Antibody 54
# B18: Human ST2 IgG1 Antibody 49 (antibody, V domains shown)
# VH: QVQLVQSGAEVKKPGASVKVSCKASGGTLSSYAISWVRQAPGQGLEWMGGISPYNGKANYAEKLQGRVTMTRDTSTSTVYMELSSLRSEDTAVYYCAIRSIAAREGVYYYYMDVWGKGTTVTVSS
# VL: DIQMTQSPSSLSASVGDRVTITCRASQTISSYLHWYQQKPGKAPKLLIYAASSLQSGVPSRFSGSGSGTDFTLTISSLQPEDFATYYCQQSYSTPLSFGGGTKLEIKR
# notes: IgG1, kappa; also called ST2 Antibody 49
# B19: Human ST2 IgG1 Antibody 76 (antibody, V domains shown)
# VH: QVQLVQSGAEVKKPGSSVKVSCKASGYTFTDYYMHWVRQAPGQGLEWMGVIIPVLGAAKYAQKFQGRVTITADESTSTAYMELSSLRSEDTAVYYCAKGWGAFDIWGQGTMVTVSS
# VL: EIVMTQSPATLSVSPGERATLSCRASQSVSSYLAWYQQKPGQAPRLLIYGASTRASGIPARFSGSGSGTEFTLTISSLQSEDFAVYYCQQYYSYPWTFGQGTKVEIKR
# notes: IgG1, kappa; also called ST2 Antibody 76
# B20: Human ST2 IgG1 Antibody 86 (antibody, V domains shown)
# VH: QVQLVQSGAEVKKPGSSVKVSCKASGGTFSNYAISWVRQAPGQGLEWMGGIIPIFGTANYAQKFQGRVTITADESTSTAYMELSSLRSEDTAVYYCAKDLGGWFNLFDPWGQGTLVTVSS
# VL: B19 VL with S28G, S56T, Y92R, Y94F, W96L, Q100G
# notes: IgG1, kappa; also called ST2 Antibody 86
# Target: T1, Human ST2 (human, UniProt Q01638 19-328, limits assumed)
# T1 construct: also called human ST2 protein; Interleukin 1 receptor-like 1
# T1 sequence (looked up): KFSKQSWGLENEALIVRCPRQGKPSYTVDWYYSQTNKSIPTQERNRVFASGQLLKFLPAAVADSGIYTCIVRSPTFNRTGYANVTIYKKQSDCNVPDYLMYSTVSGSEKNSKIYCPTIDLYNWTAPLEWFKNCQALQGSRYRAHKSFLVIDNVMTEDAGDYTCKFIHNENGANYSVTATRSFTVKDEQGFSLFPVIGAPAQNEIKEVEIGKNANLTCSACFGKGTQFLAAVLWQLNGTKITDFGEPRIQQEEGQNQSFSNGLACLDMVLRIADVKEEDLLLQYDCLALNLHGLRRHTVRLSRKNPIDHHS
# Experiment: SPR (Carterra), antibody immobilized, ST2 analyte, 1:1
# Experimental: (§1) Binding of the reformatted human ST2 antibodies to the human and mouse ST2 proteins was evaluated by surface plasmon resonance (SPR), using a high throughput antibody screening and characterization platform from Carterra (Salt Lake City, Utah).
Binder,Kd,koff,kon
B1,590 nM,0.11 s⁻¹,190000 M⁻¹ s⁻¹

# Target: T2, Mouse ST2 (mouse, UniProt P14719 27-332, limits assumed)
# T2 construct: also called mouse ST2 protein
# T2 sequence (looked up): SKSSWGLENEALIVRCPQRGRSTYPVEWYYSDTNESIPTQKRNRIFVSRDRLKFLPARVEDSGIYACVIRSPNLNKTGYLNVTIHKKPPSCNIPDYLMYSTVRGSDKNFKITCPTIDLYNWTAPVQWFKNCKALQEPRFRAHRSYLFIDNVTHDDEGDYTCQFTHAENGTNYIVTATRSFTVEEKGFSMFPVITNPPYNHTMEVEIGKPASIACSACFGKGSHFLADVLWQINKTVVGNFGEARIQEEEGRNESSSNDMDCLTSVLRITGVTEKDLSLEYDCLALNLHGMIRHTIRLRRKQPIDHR
# Experiment: as above
# Experimental: as §1
Binder,Kd,koff,kon
B2,845 nM,0.11 s⁻¹,140000 M⁻¹ s⁻¹
B3,3100 nM,0.16 s⁻¹,51000 M⁻¹ s⁻¹
B4,419 nM,0.098 s⁻¹,230000 M⁻¹ s⁻¹
B5,2400 nM,0.15 s⁻¹,62000 M⁻¹ s⁻¹
B6,529 nM,0.09 s⁻¹,170000 M⁻¹ s⁻¹
B7,3900 nM,0.13 s⁻¹,33000 M⁻¹ s⁻¹
B8,1400 nM,0.13 s⁻¹,95000 M⁻¹ s⁻¹
B9,3400 nM,0.14 s⁻¹,42000 M⁻¹ s⁻¹
B10,2700 nM,0.16 s⁻¹,59000 M⁻¹ s⁻¹
B11,107 nM,0.018 s⁻¹,170000 M⁻¹ s⁻¹
B12,999 nM,0.11 s⁻¹,110000 M⁻¹ s⁻¹
B13,989 nM,0.1 s⁻¹,100000 M⁻¹ s⁻¹
B14,438 nM,0.063 s⁻¹,140000 M⁻¹ s⁻¹
B15,975 nM,0.12 s⁻¹,120000 M⁻¹ s⁻¹
B16,744 nM,0.13 s⁻¹,180000 M⁻¹ s⁻¹
B17,2700 nM,0.13 s⁻¹,50000 M⁻¹ s⁻¹
B18,436 nM,0.12 s⁻¹,270000 M⁻¹ s⁻¹
B19,778 nM,0.14 s⁻¹,180000 M⁻¹ s⁻¹
B20,507 nM,0.098 s⁻¹,190000 M⁻¹ s⁻¹
